Measurements published in US20240084003A1 (SIMCERE ZAIMING PHARMACEUTICAL, published 2024).
Residue numbers refer to the chain shown, from its start.

T1: monkey CD22 protein (ACROBiosystems, catalog number SI2-R52Ha) (monkey, UniProt F6W485 20-688)
T1 construct: commercial protein; also called monkey CD22-ECD; monkey CD22-ECD-His
T1 sequence: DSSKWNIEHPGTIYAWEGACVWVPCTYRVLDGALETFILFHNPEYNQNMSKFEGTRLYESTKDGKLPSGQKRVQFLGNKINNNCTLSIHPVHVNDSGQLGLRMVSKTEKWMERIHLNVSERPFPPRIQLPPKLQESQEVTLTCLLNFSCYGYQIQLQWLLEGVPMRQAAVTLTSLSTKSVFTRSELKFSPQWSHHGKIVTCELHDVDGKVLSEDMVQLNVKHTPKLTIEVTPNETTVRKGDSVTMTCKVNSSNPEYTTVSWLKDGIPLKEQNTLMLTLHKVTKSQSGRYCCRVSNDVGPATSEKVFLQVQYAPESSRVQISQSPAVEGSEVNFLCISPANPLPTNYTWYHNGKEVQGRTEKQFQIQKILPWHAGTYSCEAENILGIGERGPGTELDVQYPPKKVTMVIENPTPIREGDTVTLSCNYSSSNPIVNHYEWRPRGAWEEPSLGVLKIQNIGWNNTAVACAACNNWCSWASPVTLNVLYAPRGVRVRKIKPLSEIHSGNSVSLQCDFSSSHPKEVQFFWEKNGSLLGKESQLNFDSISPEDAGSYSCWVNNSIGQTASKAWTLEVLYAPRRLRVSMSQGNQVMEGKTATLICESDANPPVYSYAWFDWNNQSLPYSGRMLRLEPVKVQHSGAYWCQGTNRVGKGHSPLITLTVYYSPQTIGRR

B1: F1.280.1 (antibody, human IgG1, kappa, V domains shown)
VH: QIQLVQSGPELKKPGETVKISCKASGYTFTTYGMSWVKQTPGKGLTWMGWINTDSGVPTYADDFKRRFAFSLEASATTAYLQINNLKNEDTATYFCARGGPDYWGQGTTLTVSS
VL: DILLTQSPATLSVTPGETVSLSCRASQSIYKNLHWYHQKSHRSPRLLIKYASDSISGIPSRFTGSGSGTNFTLSINSVKPEDEGIYYCLQGYIVPLTFGAGTKLELKR
notes: human-murine chimeric IgG1 kappa
B2: F2.99.1 (antibody, human IgG1, lambda, V domains shown)
VH: QVTLKESGPGILQPSQTLSLTCSFSGFSLSTFPMGVGWIRQPSGKGLEWLAHIWWDDDEYYNPVLKSRLTISKDTSKKQVYLRIANVDTVDTATYYCTRANWDRWYFDVWGTGTTVTVSS
VL: QLVLTQSSSASFSLGASAKLTCTLSRQHSAYTIEWYQQQPLKPPKYVMEVKKDGSHSTGDGIPDRFSGSSSGADRYLSISNIQPEDEAIYICGVGDTIKEHFVFGGGTKVTVLG
notes: human-murine chimeric IgG1 lambda; VL name legible
B3: F2.42.9 (antibody, human IgG1, lambda, V domains shown)
VH: QVTLKESGPGILQPSQTLSLTCSFSGFSLSTFDRGVGWIRQPSGKGLEWLAHIWWNDKKFYNPVLKSRLTISKDTSKNQVFLTIANVDSADTATYSCARIVWDKYYFDYWGQGIPLTVSS
VL: B2 VL with R26S, Y46F, E49D, V50L, D64A, S78T, H101Q, F102Y
notes: as for B2

biological target: T1, monkey CD22 protein (ACROBiosystems, …); assay: ELISA, coated monkey CD22 protein, antibody 10 nM
Method: (§1) In order to detect the binding activity of CD22 human-murine chimeric antibodies to CD22 protein, the purified human CD22-ECD-His protein obtained in Example 2 was diluted with PBS to a final concentration of 2 μg/mL, and then added to 96-well ELISA plate at 100 μl/well. The plate was sealed with plastic film and incubated overnight at 4° C., the plate was washed 2 times with PBS the next day, and then a blocking solution [PBS+2% (w/w) BSA] was added for blocking at room temperature for 2 hours. […] After incubation at 37° C. for 2 hours, the plate was washed 3 times with PBS. HRP (horseradish peroxidase)-labeled secondary antibody (purchased from Sigma, catalog number: A0170) was added, and incubated at 37° C. for 2 hours, and the plate was washed 5 times with PBS. TMB substrate was added at 50 μl/well, and incubated at room temperature for 30 minutes, then a stop solution (1.0 N HCl) was added at 50 μl/well.
(§2) In order to detect the species cross-binding activity of the chimeric antibodies, an ELISA plate was coated with commercial murine CD22 protein (ACROBiosystems, catalog number: SI2-M52Ha) and monkey CD22 protein (ACROBiosystems, catalog number: SI2-R52Ha), respectively, and the ELISA detection was performed according to the method in Example 5.1.

Going from B1 to B2, the OD450 rises from 0.08 OD450 to 1.03 OD450.

B3 showed an OD450 of 1.65 OD450.

biological target: T1, monkey CD22 protein (ACROBiosystems, …); assay: ELISA, coated monkey CD22 protein, antibody 0.1 nM
Method: as §1, §2

First: B1
Second: B2
The OD450 of the first is lower: 0.06 OD450 for the first, 0.27 OD450 for the second.

B3 showed an OD450 of 0.95 OD450.

biological target: T1, monkey CD22 protein (ACROBiosystems, …); assay: ELISA, coated monkey CD22 protein, antibody 100 nM
Method: as §1, §2

Compared with B1, B2 is higher in OD450: 0.2 OD450 for the first, 1.37 OD450 for the second.

Work on B3 yielded an OD450 of 2.42 OD450.

biological target: T1, monkey CD22 protein (ACROBiosystems, …); assay: ELISA, coated monkey CD22 protein, antibody 0.01 nM
Method: as §1, §2

First: B1
Second: B2
The OD450 of the first is lower: 0.05 OD450 for the first, 0.07 OD450 for the second.

For B3, the OD450 was 0.25 OD450.

biological target: T2, CD22 on cynomolgus monkey peripheral blood B cells (cynomolgus monkey (Macaca fascicularis)); assay: FACS, cynomolgus PBMC, CD20+ B cells, antibody 1 nM
T2 construct: whole, on cells; also called cynomolgus monkey B cells
Excerpt: (§3) The monkey peripheral blood mononuclear cells were extracted from fresh cynomolgus monkey peripheral blood (purchased from Shanghai Medicilon Inc.) according to the instructions of Ficoll-Paque Plus (purchased from GE Healthcare, catalog number: 171440-02). After the cell suspension was centrifuged, the cells were resuspended in PBS containing 1% BSA, and then the cells were counted. At the same time, the murine antibody Brilliant Violet 605 anti-human CD20 (catalog number: 302334, purchased from Biolegend) with monkey CD20 cross-binding activity and the chimeric antibodies to be tested (1 nM, 10 nM and 100 nM) were added and incubated at room temperature for 1 hour. After washing the cells three times, APC-labeled secondary antibody anti-human IgG Fc (catalog number: 409306, purchased from Biolegend) was added. After incubation at room temperature in the dark for 30 minutes, the cells were washed 5 times, gently resuspended with PBS containing 1% BSA, and detected and analyzed by FACS (FACS Canto™, purchased from BD Company). Wherein CD20 was used as a marker of B cells, and the CD20-positive B cell population was gated, the proportion of chimeric antibody positive cells was analyzed, and the proportion of chimeric antibody positive cell population to B cell population was calculated after treatments with the chimeric antibodies at the concentrations of 100 nM, 10 nM and 1 nM, respectively. The scatter plot of double-stained cells by Brilliant Violet 605-labeled CD20 and APC secondary antibody indirectly labeled chimeric antibody is shown in FIG. 10A-FIG. 10B (under the condition of 1 nM of chimeric antibody concentration).

B1 and B2 are the same in “Proportion of chimeric antibody positive cells to B cells (%)” value (“Proportion … (%)” for short): 19% for the first, 19% for the second.

B3 was tested, and the “Proportion … (%)” value was 20%.

biological target: T1, monkey CD22 protein (ACROBiosystems, …); assay: ELISA, coated monkey CD22 protein, antibody 0.001 nM
Method: as §1, §2

Compared with B1, B2 is lower in OD450: 0.06 OD450 for the first, 0.05 OD450 for the second.

For B3, the OD450 was 0.09 OD450.

biological target: T2, CD22 on cynomolgus monkey peripheral …; assay: FACS, cynomolgus PBMC, CD20+ B cells, antibody 10 nM
Excerpt: as §3

Going from B1 to B2, the “Proportion … (%)” value falls from 18% to 16%.

In the case of B3, the “Proportion … (%)” value is reported as 20%.

biological target: T1, monkey CD22 protein (ACROBiosystems, …); assay: ELISA, coated monkey CD22 protein, antibody 0.0001 nM
Method: as §1, §2

Going from B1 to B2, the OD450 falls from 0.06 OD450 to 0.05 OD450.

B3 showed an OD450 of 0.07 OD450.

biological target: T2, CD22 on cynomolgus monkey peripheral …; assay: FACS, cynomolgus PBMC, CD20+ B cells, antibody 100 nM
Excerpt: as §3

Going from B1 to B2, the “Proportion … (%)” value falls from 35% to 22%.

In the case of B3, the “Proportion … (%)” value is reported as 23%.

biological target: T1, monkey CD22 protein (ACROBiosystems, …); assay: ELISA, coated monkey CD22 protein, antibody 0.00001 nM
Method: as §1, §2

First: B1
Second: B2
The OD450 of the first is higher: 0.06 OD450 for the first, 0.05 OD450 for the second.

B3 gave an OD450 of 0.07 OD450.
